Source: the nanobody polyreactivity screen of Harvey et al. (2022)

Test: yeast display, Sf9 membrane polyspecificity reagent, FACS + sequencing; frameworks hold sequencing errors
Method in brief: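 Sorting gates, low and high (top ~1%), were placed on anti-HA fluorescence to track expression and on streptavidin fluorescence to track reagent binding. A clone's polyreactivity label is taken from the gate it came out of. The reagent was 10% biotinylated, detergent-solubilized Sf9 membrane, applied for 1 hour at 4 °C to galactose-induced yeast display cells.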

Row | Sequence | polyreactivity (PSR sort gate)
1 | QVQLVESGGGLVQAGGSLRLSCAPSGRIFLPYAMGWYRPAPGKEWELVAGISSGGSTKYADSVKGRFTISRDNAMNTVYLQMNSLKPEDTAVYYCNRRFPIYCSRFGYYYWGQGTQVTVSS | high polyreactivity
2 | QVQLVESGGGLVQAGGSLRLSGAASGSTFESYAMGWYRQAPGKERELVAAISWRVGSTYYADSVKGRFTISRDNAKNTVYLQMNSLKPEDTAVYDCASKGRYAHYGGYDYWGQGTQVTVSS | low polyreactivity
3 | QVQLVESGGGLVQAGGSLRLSCAASGSTFAPNAMGWYRQAPGKERELVAAISSGSSTYYADSVKGRFTISRDNAKNTVYLQMNSLKPEDTAVYYCARRVSWGYYYWGQGTQVTVSS | high polyreactivity
4 | QVQLVESGGGLVQAGGSLRLSSAASGSTFKYYAMGCYRQAPGKERELVAAITNDGSTSYADSVKGRFTISRDNAKNTVYLQMNSLTPEDTAVYYCNARSKYPSYFSSMGYWGQGTQVTVSS | high polyreactivity
5 | QVQLVESGGGLVQAGGSLRLSCAASGFDFSYYDMGWYRQAPGKEREFVASIDWSGGSTYYADSVKGRFTISRDNAKNTDYLQMNSLKAEATAVYYCAAELDYFPGYDYWGQGTQVTVSS | low polyreactivity
6 | QVQLVESGGALVQAGGSLRLRCAASGRIFRLYAMGWYRQAPGKERELVAAISSSGADTYYADSVKGRFTISSDNAKNTVDLQMNSLKPEETAVYYCAARTWHRYDYFGQGTQVTVSS | high polyreactivity
7 | QVQHVESGGGLVQAGGSLRLSCAASGSTFAINAMGGYRQAPGKERELVAAISSSGSTNYADSVKGRFTISRDNAKNTVYLQMNSLKPEDTAVSYCAADRVWGTPQAYVPSQFDYWGQGTQVTVSS | low polyreactivity
8 | QVQLVESGGGLVQARGSLRLSCASSGSIFTDNGMGWYRQPPGKESDLVAAISWRGGTYYADSVKGRFTISRDNAKNTVYLQMNSLKPEDSAVYYSAADVLRISTRLFRGPGFDSWGQGTQVTVSS | low polyreactivity
9 | QVQLGESGGGLVQAGGSLRLSCAASGSILRSYAMGWYRQAPGKERELVAVINGSGDRTYYADSVKGRFTISRDTAKNTVYLQMNSLKPEDTAVYYCNVVRRSPGDYSYYYWGKGTQVTVSS | low polyreactivity
10 | QVQLVESGGRLVQAGGSLRLICAASGLTIRSYAMGWYRQAPGKERELVAAISDSGDSTYYADSVKGRFTISRDNAKNTVYFQMNSLKPEDTAVYYCAVEYSYEYEFWGQGTQVTVSS | low polyreactivity
11 | QVQLVESGGGLFQAGGSLRLSCAASGFIFYYNTMGWYRQAPGKERELVAAISSGGRTYYADSVKGRFTISRDNAKNTVYLQMNSLKPEDTAVYYCNVVTYVKYGCWGQGTQVTVSS | high polyreactivity
12 | QVQLVESGGGLVQAGGRLRLSSAASGFTFNKYGMGWYRQAPRKERELVAAISGSGGSTRYADSVKGRFTISRDNAKNTVYLLMNSLKPEDTAVYFCAKRSQTRYYYWGQGTQVTVSS | high polyreactivity
13 | QVQLVESGGGLVQAGGSLRLSCAASGRILRGYAMGWYRQAPGKERELVAAISWNGGSTYYADSVKGRFTISRDNAKNTVYLQMNSLKPEDTAVYYCAVVFNPHRYTGVLAGYDYWGQGTQVTVSS | high polyreactivity
14 | QVQLVESGGGLVQAGGSLRLSCAASGRTLAFNAMGWSRQAPGKERELGAGIRNGTSTNYADSVKGRFTISRVNAKNTVYLQMNCLKPEDTADYYCNVPYYLQSYLSGYDYWGQGTQVSVSS | low polyreactivity
15 | QVQLVASGGGIDQAGGSHRLSCAASGSIFPAYTMGWYRPAPGKERELVAAITRRGGSTYYADSVKGRFTISRDNAKNTVYLQMNSLKPEDSAVYYCAADGFNSDDTPSWYWGEYWGPGTQVTVSS | low polyreactivity
16 | QVQLVESGGGLVQAGGSLRLSCAASGSIFPHNAMGWYRQAPGKERALVASITSRGGITYYADSVKGRFTISRDNAKNTVYLQMNSLKPEDTAVYYCNGVLYHYSPTDSWITYDYWGQGTQVTVSS | low polyreactivity
17 | QFHLVESGGGLVQAGGSLRLSCAASGRIFYPYAMGWYRQAPGKEREFVAAITRRTASTYYADSVKGRFTITRDNAKNTVYLQMNSLKPEDTAVYYCAADSYLKRPYYAGYYYWGQGTQVTVSS | high polyreactivity
18 | QVQLVESGGGLVQAGGSLRLSCAASGRTFFGNAKGWYRQAPGKERELVAAISWRGGSTYYADSVKGRFTISRDNAKKTVYLQMNSLKPEDTAVYYCATGRYGYGYWGQGTQVTVSS | high polyreactivity
19 | QVQLVESGGRLVQAGGSLRLSCAASGFTFPWYTMGWYRQPPGKEREFVAAITVSGGSTYYADSVKGRFTISRDNAKNSVYLQMNSLKPEDTAVYYCARDGRVVYDSRYDYWGQGTQVTVSS | low polyreactivity
20 | QVQLVESGGGLVQAGGSLRLSCAASGSFFVDDAMGWYRQAPGKERELVATISSDVSTYYADSVKGRFTISRDNAKTTVYIQMNSLKPEDTAVYYCAATVSLHWAYSFSLYLEDDYWGQATQVTVSS | low polyreactivity

Row | Sequence | polyreactivity (PSR sort gate)
21 | QVQLQESGGGLVQAGGSLRLSCAASGSIFDYVSMGWYRQAPGEERELVVTITLGSNTYYADSVKGRFTISSDIAKNTVYLQMNSLNPVDTAVYYCAASALWGYVYPYWGLGTQVTVSS | high polyreactivity
22 | QVQLVESGGGLVQAGGSLRLSCAASGIIFIFYDMGWYRQAPGTERELVAAITNGVDSTYYADSVKGRFTISRDNAKNTVYLQMNSLKPEDTAVYYCNADTVVEWYSPSREYDYWGQGTQVTVSS | low polyreactivity
23 | QVQLVESGGGLVQAGGSLRLSCAASGSTFLTNTMGWYRQAPGKERELVAAISKSGGSTYYADSVKGRFTISRDNAKNTVYLQMNSLKPEDTAVYYCAAVRYVHFGYDYWGQGTQVTVSS | high polyreactivity
24 | QVQLVESGGGLVQAAGSLRLSCAASGSTFGYNTMGWYRQAPGKERELVAGITYSGGRTYYADSVKGRFTISRDNAKNTVYLQMNSLKPADTAVYYCAALYGRGGYRNQPKSTTGMDYWGQGTQVTVSS | high polyreactivity
25 | QVQLVESGGGLVQAGGSLRLSCAASGSNFNIKAIGWYRQAPGKERELVATIPSGGTTSSADSVNGRFTISRDNAKNTVYLQMNSLKPEDTAVYYCYAEIYPIVKAGRHHRRRYDYWGQATQVTVSS | low polyreactivity
26 | QVQLVESGGGLVQPGCSLRLSCAASGSIFYAYDMGWYRQSPGKERQLVAAISWSGGTTYYADSVKGRFTISRDNAKNTVYLQMNSLIPEDTAVYYCAAREYYTDVHGTRRYDYWGQGTQVTVSS | low polyreactivity
27 | QVQLVESGGGLVQAGGSLRLSCAASGSTFWFYAMGWYRQAPGKERELVAVISNSGSTYYADSVKGRFTISRDNAKNTVYLQMNSLKPEDTAVYYCNRYYPVPYDYWGQGTQVTVSS | low polyreactivity
28 | QVQLVESGGGLVQAGGSLRLSCAASGRTFARNALGWYRQAPGKERELVAAITKGGGSTYYADSVKGRFTISRDNAKNTVYLQMNSLKPEDTAVYYCDAYKPSTRRYDYWGQGTQVTVSS | high polyreactivity
29 | QVQLVESGGGLVQAGGSLRLSCAASGFTFRSYAMGCYRQAPEKEMELVAAISRRGGSTYYADSVKGRFTISRDNAKNTVYLQMNSLKPEDTAVYFCAKDGTGAGTYDYWGQGTQVTVSS | low polyreactivity
30 | QVQLQESGGGLVQAGGSLRLSCAASGSISRYYDMGWYRQAPGKEREFVAGISGGAITYYADSVKGRFTISRDNAKNTVYLQMNSLKPEDTAVYYCAADPGVYQYHSYWGQGTQVTVSS | low polyreactivity
31 | QVQLVESGGGLVQAGGSLRLSCAASGSIFYVYAMVWYRQAPGKEREFVASIRTSGSSTYADSVKGRFTISRDNAKNTVYLQMNSLKPEDTAVYYCAAGSITVFWKRTGYRWRGYDYWGQGTQVTVSS | low polyreactivity
32 | QVQLVESGGGLVQAGGSLRLSCAASGRTFQDNAMGWSRQEPGKERELVAAISWRGGSTNYADSVKGRFTISRDNAKNTVFLQLNSLKPEDTAVYYCNRDPRKYGKLDYWGQGTQVTVSS | low polyreactivity
33 | QVQLVESGGGLVQAGGSLRLSCAASGLTFYWYVMGWYRQAPGKERELVAAITGGGSSTYYADSVKGRFTISRDNAKNTVYLQMNSLKPEDTAVYYCAADYRGGIRYYRGAAYNYWGQGTQVTVSS | high polyreactivity
34 | QVQLVASGGGLVQAGASLRLSCAASGFTFSLYGLGGYRQAPGKERELVAALRSGGSTNYADSVKGRFTISRDNAKNTVYLQLNSLKPEDTAVYYCATDIHSVLNNRVKHDYDYWGQGTQVTVSS | low polyreactivity
35 | QVQLVESGGGLVQAGGSLRLSCAASGSTFDANAMGWSRQAPRKERELVATISDGGSTNYADSVKGRFTISSDNAKNTVYLQMISVKPEDTAVYYCAAVKLFLGLGFEYWGQGTQVTVSS | low polyreactivity
36 | QVQLVESGGGLVQAGGSLRLSSAASGSIFETYAMGWSRQAPGKERELVAAITQSGGSTYYADSVKGRFTISRDNAKNTVYLQMNSLKPEDTAVYYCAADLVVWWKWGYEYWGQGTQVTVSS | low polyreactivity
37 | QVQLVESGGGLVQAGGSLRLSCAASGSILVTYAMGWYRQAPGKERELVAAISRGGRTYYADSVKGRFTISRDNAKNTVYLQMNSLKPEDTAVYYCNADRVTFSWPVNYYWVDYWGQGTQVTVSS | high polyreactivity
38 | QVQLVESGGGLVQAGGSLRLSCAASGSIFRYYAMGWYRQAPGKERELVAGISRSGGSTYYADSEKGRFTISRDNAKNTVYLQMNSLKPEDTAVYYCAATAYSPRGKRYDSWGQVTQVTVSS | high polyreactivity
39 | QVQLVESGAGLVQAGGSLRLSCAASGGTFESYAMGWYRQAPGTERELVAAISGRGGRTYYADSVKGRFTISRDNAKNTVYLQMNSLKPEDTAVYYCRYWYYRTYYYWGQGTQVTVSS | high polyreactivity
40 | QVQLVESGGGLVQAGGSLRLSCAASGRIFTSYAMGWYRQAPGKERELVAAINRGGSTYYADSVKGRFTISRDNAKNTVYLQMNSLKPEDTAVYYCNATPPYNPEFDYWGQGTQVTVSS | low polyreactivity
